The values below are quoted from earlier work in paper PMC4664810.

Read-outs that look alike come from different tables or passages of the source.

Data set [1] addresses CD20 (Homo sapiens) (UniProt P11836).
For data set [2] the target is unchanged. The source holds these as a separate data set.

Sequence of CD20 (Homo sapiens) (P11836 whole entry): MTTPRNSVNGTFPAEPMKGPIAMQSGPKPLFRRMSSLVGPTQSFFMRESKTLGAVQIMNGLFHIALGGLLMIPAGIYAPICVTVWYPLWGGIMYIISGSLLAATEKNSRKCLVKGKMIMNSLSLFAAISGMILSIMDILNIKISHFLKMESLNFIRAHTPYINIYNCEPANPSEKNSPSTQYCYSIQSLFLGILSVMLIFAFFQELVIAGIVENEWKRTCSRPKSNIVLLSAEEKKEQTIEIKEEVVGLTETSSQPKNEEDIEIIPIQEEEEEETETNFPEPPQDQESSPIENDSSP

For orientation: Kd means the free concentration of one partner at which half of the binding sites on the other are occupied at equilibrium, for simple one-to-one binding. Turning to rituximab, the Kd in the data set with CD20 (Homo sapiens) [1] is 5.45 nM. For the substance ofatumumab, in the data set with CD20 (Homo sapiens) [2], the dissociation constant Kd is 4.76 nM.
